Assay results: the nanobody polyreactivity screen of Harvey et al. (2022)

assay: yeast display, Sf9 membrane polyspecificity reagent, FACS + sequencing; frameworks hold sequencing errors
In short: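 Polyreactivity labels are assigned by the sorting gate from which each nanobody was recovered. The gates were low and high (top ~1%), set on anti-HA fluorescence for expression and streptavidin fluorescence for reagent binding. Before sorting, galactose-induced (36–48 hours) yeast display cells were stained for 1 hour at 4 °C with 10% biotinylated, detergent-solubilized Sf9 membrane reagent.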

Sequence | polyreactivity (PSR sort gate)
QVQLVESGGGLVQAGGSLRLSCAASGYTFGVYVMGWYREAPGKERELVAAISGSTYYADSVKGRFTISRDNAKNTVYVQMNSLKPEDTAVYYCAAESYFFSPRTREKFDYWGQGTQVTVSS | low polyreactivity
QVQLVESGGGLVQAGGSLRLSCAASGYTFGVYVMGWYRQAPGKERELVAAISGSTYYADSVKGRFTISRDNAKNTVYLQMNSLKPEDTAVYYCAAESYFFSPRTREKFDYWGQGTQVTVTS | low polyreactivity
QVQLVESGGGLVQAGGSLRLSCAASGYTFIRNGMGWYRQAPGKERDLVAAISRRGGSTYYADSVKGRFTISRDNAKNTVYLQMNRLKPEDTAVYYCAKASTERMGSWGQGTQVTVSS | high polyreactivity
QVQLVESGGGLVQAGGSLRLSCAASGYTFIYYAMGWYRQAPGTERELVATISIDGSTNYADSVKGRFTISRDNAKNTVYLQMNSLKPEDTAVYYCNRERYEDYDYWGQGTQVTVSS | high polyreactivity
QVQLVESGGGLVQAGGSLRLSCAASGYTFKRYAMGWYRQAPGKERELVAAISQSGTNTYYADSVKGRFTISRDNAKNTVYLQMNSLKPEDTAVYYCAAKPPRRYQLMDYWGQGTQVTVSS | high polyreactivity
QVQLVESGGGLVQAGGSLRLSCAASGYTFKSYALGWYRQAPGKERELVASISNDGSTNYADSVKGRFTISRDNAKNTVYLQMNSLKPEDTAVYYCNADFYDAPSQWARTGFDYWGQGTQVTVSS | low polyreactivity
QVQLVESGGGLVQAGGSLRLSCAASGYTFKTNDMGRYRQAPGKEREFVAAIDSGGNTYYADSVKGRFTISRDNAKITVYLQMNSLIPEDTAVYYCGAYRDYQYDYWGQGTQVTVSS | low polyreactivity
QVQLVESGGGLVQAGGSLRLSCAASGYTFKYYTMGWSRQAPGKERELVAAITGGGSTYYADSVKGRFTISRDNAKNTVYLQMNSLKPEDTAVYYCAATVLYGYHKAYDYWGQGTQVTVSS | high polyreactivity
QVQLVESGGGLVQAGGSLRLSCAASGYTFKYYTMGWYRQAPGKESELVAAITRSGGSTYYADSVKGRFTISRDNAKNTVYLQINSLKPEDTAVYYCAARAAYKQPVSFDYWGQGTQVTVSS | high polyreactivity
QVQLVESGGGLVQAGGSLRLSCAASGYTFLGNAMGWYRQAPGKERELVAAISSGGTTYYADSVKGRFTISRDNAKNTVYLQMNSMKPEDTSVYYCADDRVGLSSGYDFWGQGTQVTVSS | low polyreactivity
QVQLVESGGGLVQAGGSLRLSCAASGYTFLGNAMGWYRQAPGKERELVAAISSGGTTYYADSVKGRFTISRDNEKNTVYFQMNSLKPEDTAVYFCATVFRDYDFNHWGQGTQVTVSS | low polyreactivity
QVQLVESGGGLVQAGGSLRLSCAASGYTFLPYALGWYRQAPGKERELVAAINWGGGSTYYADSVKGRFTISRDNAKNTVYLQMNSLKPEDTAVYYCNAKRPFGGLDYWGQGSQVTVSS | low polyreactivity
QVQLVESGGGLVQAGGSLRLSCAASGYTFLPYAMGLYRQAPGKERELVADISSGGTTYYADSVKGRFTISRDNAKNTVYLQMNSLKPEDTAVYYCARASLPTYDWGQGTQVTVSS | low polyreactivity
QVQLVESGGGLVQAGGSLRLSCAASGYTFLRYAMGWYRQAPGKERELVAAISRRGGRTYYADSVKGRFTISRDNAKNTVYLQMNSLKPEDTAVYYCAAVNSTQTIGLMDYWGQGTQVTVSS | high polyreactivity
QVQLVESGGGLVQAGGSLRLSCAASGYTFLYNAMGWYRQAPGKERELVAAISWNGGRTYYADSVKGRFTISRDNAKNTVYLQMNSLKPEDTAVYYCAKTPSYGRNVDYWGQGTQVTVSS | high polyreactivity
QVQLVESGGGLVQAGGSLRLSCAASGYTFNIYAMGWYRQAPGKERELVAAITSRGGGTYYADSVKGRFTISRDNAKNTVYLQMNSLKPEDTAVYYCAADVYSYYHWYTHYDYWGQGTQVTVSS | high polyreactivity
QVQLVESGGGLVQAGGSLRLSCAASGYTFNYYAMGWYRQAPGKEREFVASTYADSVKGRFTISRDNAKNTVYLQMNSLKPEDTAVYYCNARNLGRYLVLSYGYWRQGTQVTVSS | low polyreactivity
QVQLVESGGGLVQAGGSLRLSCAASGYTFPFYTMGWYRQAPGKERELVAAISNSGTSTYYADSVKGRFTISRHNAKNTVYLQMNSLKPEDTAVYYSNAGRGTRFVYIDGMDYWGQGTQVTVSS | high polyreactivity
QVQLVESGGGLVQAGGSLRLSCAASGYTFPSNAMGWYREAPGKERELVAAISSGARTNYADSVKGRFTISRDNAKNTVYLQMNSLKPEDTAVYYCNKAAASFRHFYGYGYWGQGTQVTVSS | low polyreactivity
QVQLVESGGGLVQAGGSLRLSCAASGYTFQAYAMGWYRQAPGKERELVAAISFSSGSTYYADSVKGRFTISRDNAKNTVYLQMNSLKPVDTAVYYCATDYPYYGYDYWGHGTQVTVSS | low polyreactivity
QVQLVESGGGLVQAGGSLRLSCAASGYTFQKYAMGWYIQAPGKERELVAAITRSGTRTYYADSVKGRFTISRDNAKNTVYLQMNSLKPEDTAVYYCAAETYYSIYDYWGQGTQVTVSS | high polyreactivity
QVQLVESGGGLVQAGGSLRLSCAASGYTFQKYAMGWYRQAPGKERELVAAITRSGTRTYYADSVKGRFTISRDNAKNTVYFQMNSLKPEDTAVYYCAAETYYSIYDYWGQGTQVTVSS | high polyreactivity

Sequence | polyreactivity (PSR sort gate)
QVQLVESGGGLVQAGGSLRLSCAASGYTFRAYAMGWYRQAPGKEREYVAAISRSGGSTYYADSVKGRFTISRDNAKNTVYLQMNSLKPEDTAVYYCNKVYRWAGYDYWGQGSQVTVSS | high polyreactivity
QVQLVESGGGLVQAGGSLRLSCAASGYTFRAYVMGWYRQAPGKERELVAGITRRGGTTYYADSVKGRFTISRDNAKNTVYLQMNSLKPEDTAVYYCNAVFRSGSIPYDSWGQGTQVTVSS | high polyreactivity
QVQLVESGGGLVQAGGSLRLSCAASGYTFRHYAMGWYRQEPGKERELVAAITFNGGTTYYADSVKGRFTISRDNAKNTVYLQMNSLKPEDTAVYYCNALPYSRGRWRPLSAVDYWGQGTQVTVSS | high polyreactivity
QVQLVESGGGLVQAGGSLRLSCAASGYTFRSYTMGWYRQAPGKERELVAAITSRGTSTYYADSVKGRFTISRDNAKNTVYLQMNSLKPEDTAVYYCAAPIYNGYASWQVYYWGQGTQVTVSS | high polyreactivity
QVQLVESGGGLVQAGGSLRLSCAASGYTFRWYAMGWYRQAPGKERELVAAISWSTGRTYYADSVKGRFTISRDNAKNTVYLQMNSLKPEDNAVYYCAASYYVYSGGNYLRYDSWGQGTQVTVSS | high polyreactivity
QVQLVESGGGLVQAGGSLRLSCAASGYTFRYYVMGWYIQAPGQERELVATISRGGRTNYADSVKGRFTISRDNAKNTVYLQMNSLKPEDTAVYYCNARTLYAYITRDYWGQGTQVTVSS | high polyreactivity
QVQLVESGGGLVQAGGSLRLSCAASGYTFSFNAMGWYRQAPGKEREFVAAIDFGGAGTYYADSVKGRFTISRDTAKKTVYLQMNSLKPEDTAVYYCNARDGVTTEFDYWGQGTQVTVAS | low polyreactivity
QVQLVESGGGLVQAGGSLRLSCAASGYTFSKNTMGWYRQAPGKEREFVAAINWSGGSTYYADSVKGRFTISRDNAKNTVYLQMNSLKPEDTAVYYCAARRGGRRGYDYWGQGTQVTVSS | high polyreactivity
QVQLVESGGGLVQAGGSLRLSCAASGYTFSNNAMGWYRQAPGKERELVAAISRSTGSTYYADSVKGRFTISRDNAKNTVYLQMNSLKPEDTAVYYCAAEYYVDKSSWYDYWGQGTQVTVSS | high polyreactivity
QVQLVESGGGLVQAGGSLRLSCAASGYTFSPNDMGWYRQAPGKERELVAAMTSSVGSTYYADSVKGRFTISRDNAKNTVFLQMNSLKPEDTAVFYCAADTWYLGYPDFWLDYWGQGTQVTVSS | low polyreactivity
QVQLVESGGGLVQAGGSLRLSCAASGYTFSRYAMGWYRQAPGKERELVADISRSGGSTDYADSVKGRFTISRDNAKNTVYLQMNSLKPEETAVYYCAKGSWWGYYSYGFDYWGQGTQVTVSS | high polyreactivity
QVQLVESGGGLVQAGGSLRLSCAASGYTFSYYDMGWYRQAPGKERELVAGISKRGGSTRYADSVKGRFTISRDNAKNTVYLQMNSLKPEDTAVYYCNRLPYLHYAGRLTNYDYWGQGTQVTVSS | high polyreactivity
QVQLVESGGGLVQAGGSLRLSCAASGYTFSYYTMGRYLQAPGKERELVAVITSAGGTYFADSVKGRFTISRDNAKNTVYLQMNSLKPEDTAVYYCAAERWADYVWIFIDDYDYLGQGTQVTVSS | low polyreactivity
QVQLVESGGGLVQAGGSLRLSCAASGYTFTGYAMGWYRQAPGKERELVAAISWNGGSTFYADSVKGRFTISRDNAKNTVYLQMNSLKPEDTAVYYCATPRKLAYSPKLDYWGQGTQVTVSS | low polyreactivity
QVQLVESGGGLVQAGGSLRLSCAASGYTFTQNAMGWYRQAPGQERELVASLTSGGSTDYADSVKGRFTISRDNAKNTVYLQMNSVKPEDTAVYYCAAGTATDVASIGATKDYDYWGQVTQVTVSS | low polyreactivity
QVQLVESGGGLVQAGGSLRLSCAASGYTFTRYAMGWYRQAPGKEREFVAAITSGGGSTYYADSVKGRFTISRDNAKNTVYLQMNSLKPEDTAVYYCAADLTSLWYTVQLELDFWGQGTQVTVSS | low polyreactivity
QVQLVESGGGLVQAGGSLRLSCAASGYTFTSNAMGWYRQAPGKERELVAAITNVGSTNYADSVKGRFTISRDNAKNTVYLQMNSLKPEDTAVYYCAADWDAVYLQTADYDYWGQGTQVTVSS | low polyreactivity
QVQLVESGGGLVQAGGSLRLSCAASGYTFVIYAMGWYRQAPGKERELVAAITTIGGRTYYADSVKGRFTISRDNAKNTVYLLMNSLKPEDTAVYYCAADIRSNRLYDGGYWGQGTQVTVSS | low polyreactivity
QVQLVESGGGLVQAGGSLRLSCAASGYTFVKYAMGWYRQAPGKERELVASISWSGGRTYYADSVKGRFTISRDNAKNTVYLQMNSLKPEDTAVYYCATRPTWYSYDYWGHGTQVTVSS | high polyreactivity
QVQLVESGGGLVQAGGSLRLSCAASGYTFVVYAMGWYRQAPGKERELVARISSGGSTFYADSVKGRFTISRDNAKNTVYLQMNSLKPEDTAVYYCAAQWTRYRRRPMDYWGQGTQVTVSS | high polyreactivity
QVQLVESGGGLVQAGGSLRLSCAASGYTFVYNGMGWYRQAPGKERELVAAIRRRTGTTYYADSVKGRFTISRDNAKNTVYLQMNSLKPEDTAVYYCAATGFWGYDWGQGTQVTVSS | high polyreactivity
